Source: article PMC8383266 (Biochemistry, 2021)

Legend:
[1] = test system: CC1(C)S[C@@H]2[C@H](NC(=O)[C@H](N)c3ccccc3)C(=O)N2[C@H]1C(=O)O; test: purified protein; conditions: pH 6.4; 25.0 °C
[2] = test system: O=C(Cc1cccs1)N[C@@H]1C(=O)N2C(C(=O)O)=C(/C=C/c3ccc([N+](=O)[O-])cc3[N+](=O)[O-])CS[C@H]12; test: purified protein; conditions: pH 6.4; 25.0 °C

Substance: (Mycobacterium tuberculosis H37Rv)
- kcat [1]: 2.1 s⁻¹
- kcat/Km [1]: 17000 M⁻¹ s⁻¹
- Km [2]: 560 µM
- kcat [2]: 220 s⁻¹
- kcat/Km [2]: 390000 M⁻¹ s⁻¹
